Laboratory results reported in article PMC5595889.

Biological target: mouse importin α1 lacking the N-terminal importin-β-binding domain (ΔIBB-importin α1) (mouse)
Assay: ITC

Question: For influenza NLS1 peptide (1-…-13), which Kd is on record?
Answer: 4.9 µM
